These results are taken from US20260193335A1 (ZOETIS SERVICES, published 2026).

Assay [1] addresses T1, Feline FcRn (complex of FcRn-α subunit and β-microglobulin, C-terminal His tag) (feline, UniProt A0ABI7ZNY9 23-296; Q5MGS7 21-118).
T1 construct: treated here as one molecule
Kind of assay: SPR Biacore, biotin-FcRn on SA chip, pH 6; pH 6. The protocol: (§1) Feline FcRn was isolated, prepared and mutant Fc IgGs were assayed against feline FcRn according to Strietzel et. al., discussed above. Standard PCR was used to amplify feline FcRn-α subunit and β-microglobulin. FcRn-α subunit and β-microglobulin were co-transfected into HEK 293 cells and the FcRn complex was purified by IMAC affinity purification via the c-terminal His tag. FcRn complex was biotin labeled through BirA enzymatic biotinylatoin reaction. KD's were measured by Biacore T200 (GE Healthcare, Pittsburgh, PA, USA) or Biacore 8K (Cytiva, Marlborough, MA, USA) using a SA sensor chip.
(§2) FcRn was captured on the surface of the sensor using a modified SA capture method. 10 mM MES; 150 mM NaCl; 0.005% Tween20; 0.5 mg/mL BSA; pH6 was used as capture, method running buffer and titrations. 1×HBS-P, 0.5 mg/mL BSA; pH7.4 was also used for method running buffer and titrations. Fc mutant IgGs were flowed over receptor surfaces and affinity was determined using T200 evaluation software or Biacore Insight Evaluation software. Blank runs containing buffer only were subtracted out from all runs. Flow cells were regenerated using 50 mM Tris pH8 or pH9. Runs were performed at 15° C.

For assay [2], the target named is T1, Feline FcRn (complex of FcRn-α subunit …). Nature of the assay: SPR Biacore, biotin-FcRn on SA chip, pH 7.4. The protocol:
as §1, §2
Background: SPR reads the build-up and loss of mass on a sensor chip optically.

Assay [3] shares this target. Nature of the assay: SPR Biacore, biotin-FcRn on SA chip, pH 6. The essentials:
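Runs at 15° C used either pH 6 buffer (10 mM MES, 150 mM NaCl, 0.005% Tween20, 0.5 mg/mL BSA) or pH 7.4 buffer (1×HBS-P, 0.5 mg/mL BSA), with Fc mutant IgGs as analytes. Receptor was biotinylated feline FcRn complex (co-expressed in HEK 293) on an SA chip. Affinities from blank-subtracted SPR data.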

In assay [4] the target is Feline FcRn (complex of FcRn-α subunit and β-microglobulin, C-terminal His tag) (feline). Nature of the assay: SPR Biacore, FcRn amine-coupled on CM5, pH 7.2.
Chain of Feline FcRn (complex of FcRn-α subunit and β-microglobulin, C-terminal His tag) (feline) (chain, as listed by the source, chain 1 of 2): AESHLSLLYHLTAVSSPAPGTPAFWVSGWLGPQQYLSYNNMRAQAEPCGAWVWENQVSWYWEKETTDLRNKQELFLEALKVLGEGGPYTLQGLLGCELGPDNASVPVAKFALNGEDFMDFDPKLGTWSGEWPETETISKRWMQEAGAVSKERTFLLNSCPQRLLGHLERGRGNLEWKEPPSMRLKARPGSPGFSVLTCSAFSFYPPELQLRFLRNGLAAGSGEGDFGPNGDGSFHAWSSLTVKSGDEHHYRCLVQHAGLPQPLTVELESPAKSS
Chain of Feline FcRn (complex of FcRn-α subunit and β-microglobulin, C-terminal His tag) (feline) (Q5MGS7 21-118, chain 2 of 2): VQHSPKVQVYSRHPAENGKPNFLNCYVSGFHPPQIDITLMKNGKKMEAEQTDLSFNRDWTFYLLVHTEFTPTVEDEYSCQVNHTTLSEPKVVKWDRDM
Assay [5] concerns the target NGF (target of felinized anti-NGF antibodies mAb2 and mAb3). Kind of assay: SPR Biacore T200, target amine-coupled, 15 C.
Assay [6] has the same target. Kind of assay: cell-based or functional assay.
In assay [7] the target is Feline FcRn (complex of FcRn-α subunit and β-microglobulin, C-terminal His tag) (feline). Kind of assay: SPR Biacore, FcRn amine-coupled on CM5, pH 6.
The target of assay [8] is IL31 (target of felinized anti-IL31 antibody mAb1). Nature of the assay: SPR Biacore T200, target amine-coupled, 15 C.
The target of assay [9] is TGFβ (target of felinized anti-TGFβ antibody mAb6). Kind of assay: SPR Biacore T200, target amine-coupled, 15 C.
The target is the same in assay [10]. Nature of the assay: cell-based or functional assay.

Residue numbers refer to the chain shown, from its start. Names may count otherwise.

B1: mAb4 (felinized anti-IL31 antibody ZTS-5864) WT, feline IgG1a (antibody)
heavy: DVQLVESGGDLVKPGGSLRLTCVASGFTFSDYAMSWVRQAPGKGLQWVAGIDSVGSGTSYADSVKGRFTISRDNAKNTLYLQMNSLKTEDTATYYCASGFPGSFEHWGQGTLVTVSSASTTAPSVFPLAPSCGTTSGATVALACLVLGYFPEPVTVSWNSGALTSGVHTFPAVLQASGLYSLSSMVTVPSSRWLSDTFTCNVAHPPSNTKVDKTVRKTDHPPGPKPCDCPKCPPPEMLGGPSIFIFPPKPKDTLSISRTPEVTCLVVDLGPDDSDVQITWFVDNTQVYTAKTSPREEQFNSTYRVVSVLPILHQDWLKGKEFKCKVNSKSLPSPIERTISKAKGQPHEPQVYVLPPAQEELSRNKVSVTCLIKSFHPPDIAVEWEITGQPEPENNYRTTPPQLDSDGTYFVYSKLSVDRSHWQRGNTYTCSVSHEALHSHHTQKSLTQSPGK
VL: QSVLTQPSSVSGTLGQRITISCTGSSSNIGSGYVGWYQQVPGMGPKTVIYYNSDRPSGVPDRFSGSKSGSSGTLTITGLQAEDEADYYCSVYDRTFNAVFGGGT
notes: The same holds for all mAb4 variants; also called mAb4 ID No. 1
Regarding B1, binding in [1] was put at a Kd of 32 nM.

B2: mAb4 (felinized anti-IL31 antibody ZTS-5864) S428L, feline IgG1a (antibody)
heavy: B1 heavy with S433L
VL: B1 VL
notes: also called mAb4 ID No. 11
As to B2, the Kd – broadly, the constant that tells how readily two partners part at equilibrium – in assay [1] amounted to 15.5 nM.

B3: mAb4 (felinized anti-IL31 antibody ZTS-5864) S434H, feline IgG1a (antibody)
heavy: B1 heavy with S439H
VL: B1 VL
notes: also called mAb4 ID No. 00
Turning to B3, the Kd in assay [1] came to 4.88 nM.

B4: mAb4 (felinized anti-IL31 antibody ZTS-5864) S428Y and S434W, feline IgG1a (antibody)
heavy: B1 heavy with S433Y, S439W
VL: B1 VL
notes: also called mAb4 ID No. 31
Regarding B4, the dissociation constant Kd in [2] was 431 nM; in assay [3], 7.8 nM.

B5: mAb4 (felinized anti-IL31 antibody ZTS-5864) S428M and S434W, feline IgG1a (antibody)
heavy: B1 heavy with S433M, S439W
VL: B1 VL
notes: also called mAb4 ID No. 36
Take B5: the equilibrium dissociation constant (Kd) in [2] is 5010 nM; in assay [3], 6.83 nM.

B6: mAb2 (felinized anti-NGF antibody) wild-type, feline IgG1a (antibody, part only; not given: Anti-NGF heavy and light variable domains, part only)
heavy, part: ASTTAPSVFPLAPSCGTTSGATVALACLVLGYFPEPVTVSWNSGALTSGVHTFPAVLQASGLYSLSSMVTVPSSRWLSDTFTCNVAHPPSNTKVDKTVRKTDHPPGPKPCDCPKCPPPEMLGGPSIFIFPPKPKDTLSISRTPEVTCLVVDLGPDDSDVQITWFVDNTQVYTAKTSPREEQFNSTYRVVSVLPILHQDWLKGKEFKCKVNSKSLPSPIERTISKAKGQPHEPQVYVLPPAQEELSRNKVSVTCLIKSFHPPDIAVEWEITGQPEPENNYRTTPPQLDSDGTYFVYSKLSVDRSHWQRGNTYTCSVSHEALHSHHTQKSLTQSPGK
In the case of B6, the Kd in assay [4] came out at 380 nM; in assay [5] it was 0.023 nM; in assay [7], 25 nM. Moreover, the IC50 (cell based potency assay) in [6] was 0.69 nM.

B7: mAb1 (felinized anti-IL31 antibody) wild-type, feline IgG1a (antibody, part only; not given: Anti-IL31 heavy and light variable domains, part only)
heavy, part: B6 heavy, part
As for B7, the figures for the dissociation constant (Kd) in assay [8] and in assay [7] were 0.0223 nM and 12.1 nM, respectively.

B8: mAb6 (felinized anti-TGFβ antibody of Tables 1 and 2) wild-type, feline IgG1a (antibody, part only; not given: Anti-TGFβ variable domains, antibody unnamed, part only)
heavy, part: B6 heavy, part
With B8, the dissociation constant Kd in [9] is 0.00375 nM; in [7], 120 nM. Besides, the IC50 (cell based potency assay) in [10] came to 9 nM.

B9: mAb6 (felinized anti-TGFβ antibody of Tables 1 and 2) S428L, feline IgG1a (antibody, part only; not given: Anti-TGFβ variable domains, antibody unnamed, part only)
heavy, part: B6 heavy, part with S316L
As for B9, the Kd in assay [4] turned out to be 230 nM; in [9] it was 0.0843 nM; in assay [7] it was 15 nM. The same molecule yielded an IC50 (cell based potency assay) in assay [10] of 10 nM.

B10: mAb1 (felinized anti-IL31 antibody) S428L, feline IgG1a (antibody, part only; not given: Anti-IL31 heavy and light variable domains, part only)
heavy, part: B6 heavy, part with S316L
On to B10, for which the Kd in assay [4] came out at 180 nM; in assay [8] it was 0.0228 nM; in assay [7], 3.77 nM.

B11: mAb2 (felinized anti-NGF antibody) S428L, feline IgG1a (antibody, part only; not given: Anti-NGF heavy and light variable domains, part only)
heavy, part: B6 heavy, part with S316L
Turning to B11, the Kd in assay [4] worked out at 60 nM; in [5] it was 0.008 nM; in assay [7], 1.51 nM. The same molecule came in with an IC50 (cell based potency assay) in assay [6] of 0.58 nM.
